Measured values taken from the supplement of paper PMC10567573.

B1: ANKRD9 (parent)
chain: VGAAGSARQELLGDRPRWQRLLGE

Variants of: B1
Experiment: protein stability index of a GFP-peptide fusion (GPS, HEK-293T) (PSI 1-6); higher = more stable
Settings: c terminus: a fixed tail appended
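Also: lentivirally expressed fusions sorted by FACS into six bins by GFP to DsRed ratio, PSI derived from sequencing read proportions per bin multiplied by bin number.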

Row | Variant | protein stability index
1 | VGAAGSARQELLGDRPRWHRLLGE | 3.14
2 | VGAAGSARQELLGDRPRWWRLLGE | 2.81
3 | VGAAGSARQELLGDRPRWARLLGE | 2.15
4 | VGAAGSARQELLGDRPRWCRLLGE | 3.27
5 | VGAAGSARQELLGDRPRWFRLLGE | 2.51
6 | VGAAGSARQELLGDRPRWLRLLGE | 2.56
7 | VGAAGSARQELLGDRPRWMRLLGE | 3.26
8 | VGAAGSARQELLGDRPRWNRLLGE | 3.94
9 | VGAAGSARQELLGDRPRWIRLLGE | 2.98
10 | VGAAGSARQELLGDRPRWVRLLGE | 2.9
11 | VGAAGSARQELLGDRPRWYRLLGE | 2.59
12 | VGAAGSARQELLGDRPRWTRLLGE | 2.49
13 | VGAAGSARQELLGDRPRWSRLLGE | 2.91
14 | VGAAGSARQELLGDRPRWGRLLGE | 2.94
15 | VGAAGSARQELLGDRPRWDRLLGE | 2.83
16 | VGAAGSARQELLGDRPRWERLLGE | 2.58
17 | VGAAGSARQELLGDRPRWPRLLGE | 3.79
18 | VGAAGSARQELLGDFPRWQRLLGE | 2.75
19 | VGAAGSARQELLGDCPRWQRLLGE | 3.11
20 | VGAAGSARQELLGDHPRWQRLLGE | 4.05
21 | VGAAGSARQELLGDMPRWQRLLGE | 3.05
22 | VGAAGSARQELLGDEPRWQRLLGE | 3.27
23 | VGAAGSARQELLGDQPRWQRLLGE | 3.96
24 | VGAAGSARQELLGDSPRWQRLLGE | 4.15

Row | Variant | protein stability index
25 | VGAAGSARQELLGDPPRWQRLLGE | 3.11
26 | VGAAGSARQELLGDVPRWQRLLGE | 3.41
27 | VGAAGSARQELLGDTPRWQRLLGE | 3.68
28 | VGAAGSARQELLGDIPRWQRLLGE | 2.73
29 | VGAAGSARQELLGDLPRWQRLLGE | 2.51
30 | VGAAGSARQELLGDDPRWQRLLGE | 4.12
31 | VGAAGSARQELLGDNPRWQRLLGE | 3.6
32 | VGAAGSARQELLGDGPRWQRLLGE | 3.75
33 | VGAAGSARQELLGDYPRWQRLLGE | 2.66
34 | VGAAGSARQELLGDWPRWQRLLGE | 3.1
35 | VGAAGSARQELLGDKPRWQRLLGE | 3.06
36 | VGAAGSARQELLGDRPRWQRLPGE | 3.77
37 | VGAAGSARQELLGDRPRWQRLRGE | 3.67
38 | VGAAGSARQELLGDRPRWQRLNGE | 3.13
39 | VGAAGSARQELLGDRPRWQRLHGE | 3.53
40 | VGAAGSARQELLGDRPRWQRLGGE | 3.31
41 | VGAAGSARQELLGDRPRWQRLSGE | 3.96
42 | VGAAGSARQELLGDRPRWQRLKGE | 3.57
43 | VGAAGSARQELLGDRPRWQRLQGE | 3.64
44 | VGAAGSARQELLGDRPRWQRLFGE | 2.93
45 | VGAAGSARQELLGDRPRWQRLVGE | 3.68
46 | VGAAGSARQELLGDRPRWQRLTGE | 3.69
47 | VGAAGSARQELLGDRPRWQRLMGE | 2.28
48 | VGAAGSARQELLGDRPRWQRLDGE | 4.11

Row | Variant | protein stability index
49 | VGAAGSARQELLGDRPRWQRLEGE | 3.87
50 | VGAAGSARQELLGDRPRWQRLIGE | 3.18
51 | VGAAGSARQELLGDRPRWQRLCGE | 3.35
52 | VGAAGSARQELLGDRPRWQRLYGE | 2.42
53 | VGAAGSARQELLGDRPRWQRLAGE | 3.43
54 | VGAAGSARQELLGDRPRWQRLWGE | 2.96
55 | VGAAGSARQELLGSRPRWQRLLGE | 3.25
56 | VGAAGSARQELLGNRPRWQRLLGE | 2.6
57 | VGAAGSARQELLGYRPRWQRLLGE | 2.86
58 | VGAAGSARQELLGPRPRWQRLLGE | 3.13
59 | VGAAGSARQELLGLRPRWQRLLGE | 2.36
60 | VGAAGSARQELLGERPRWQRLLGE | 3.27
61 | VGAAGSARQELLGGRPRWQRLLGE | 3.18
62 | VGAAGSARQELLGQRPRWQRLLGE | 2.35
63 | VGAAGSARQELLGTRPRWQRLLGE | 2.94
64 | VGAAGSARQELLGHRPRWQRLLGE | 3.24
65 | VGAAGSARQELLGIRPRWQRLLGE | 2.56
66 | VGAAGSARQELLGARPRWQRLLGE | 2.83
67 | VGAAGSARQELLGMRPRWQRLLGE | 2.76
68 | VGAAGSARQELLGCRPRWQRLLGE | 1.39
69 | VGAAGSARQELLGRRPRWQRLLGE | 2.75
70 | VGAAGSARQELLGVRPRWQRLLGE | 2.27
71 | VGAAGSARQELLGFRPRWQRLLGE | 2.12
72 | VGAAGSARQELWGDRPRWQRLLGE | 2.35

Row | Variant | protein stability index
73 | VGAAGSARQELQGDRPRWQRLLGE | 3.27
74 | VGAAGSARQELVGDRPRWQRLLGE | 2.49
75 | VGAAGSARQELTGDRPRWQRLLGE | 3
76 | VGAAGSARQELSGDRPRWQRLLGE | 4.15
77 | VGAAGSARQELPGDRPRWQRLLGE | 3.55
78 | VGAAGSARQELYGDRPRWQRLLGE | 3.21
79 | VGAAGSARQELRGDRPRWQRLLGE | 2.12
80 | VGAAGSARQELLGDRPRWQRLLAE | 3.1
81 | VGAAGSARQELLGDRPRWQRLLCE | 2.88
82 | VGAAGSARQELLGDRPRWQNLLGE | 3.46
83 | VGAAGSARQELLGDRPRWQKLLGE | 2.71
84 | VGAAGSARQELLGDRPRWQILLGE | 2.07
85 | VGAAGSARQELLGDRPRWQALLGE | 2.58
86 | VGAAGSARQELLGDRPRWQYLLGE | 2.62
87 | VGAAGSARQELLGDRPRWQWLLGE | 3.32
88 | VGAAGSARQELLGDRPRWQMLLGE | 2.81
89 | VGAAGSARQELLGDRPRWQPLLGE | 2.19
90 | VGAAGSARQELLGDRPRWQLLLGE | 2.72
91 | VGAAGSARQELLGDRPRWQDLLGE | 1.25
92 | VGAAGSARQELLGDRPRWQFLLGE | 3.28
93 | VGAAGSARQELLGDRPRWQSLLGE | 2.87
94 | VGAAGSARQELLGDRPRWQTLLGE | 2.67
